Data reported in the Human Domainome abundance scans (Beltran et al. 2025).
± gives the uncertainty stated by the source.

B1: Serine/threonine-protein kinase A-Raf, residues 21 to 89; numbered along this chain, P10398 (parent)
chain: VKVYLPNKQRTVVTVRDGMSVYDSLDKALKVRGLNQDCCVVYRLIKGRKTVTAWDTAIAPLDGEELIVE

Variants of: B1
Experiment: abundance fitness (aPCA) (normalised: wild type 0, dead -1); higher = more abundant; growth selection in yeast, the domain comes from the species named
Details: Homo sapiens
With VKVYLPNKQRTVVTVRDGMSVYDSLDKALKVRGLNQDCCVVYRLIKGRKTTTAWDTAIAPLDGEELIVE [V51T] the abundance fitness was -0.324 ± 0.15.
VKVYLPNKQRTVVTVRDGMSVYDSLDKALKVRGLNQDCCVVYRLIKGRKTRTAWDTAIAPLDGEELIVE [V51R] showed an abundance fitness of -0.002 ± 0.042.
With VKVYLPNKQRTVVTVRDGMSVYDSLDKALKVRGLNQDCCVVYRLIKGRKTQTAWDTAIAPLDGEELIVE [V51Q] the abundance fitness was -0.032 ± 0.064.
In the case of VKVYLPNKQRTVVTVRDGMSVYDSLDKALKVRGLNQDCCVVYRLIKGRKTPTAWDTAIAPLDGEELIVE [V51P], the abundance fitness is reported as 0.031 ± 0.077.
With VKVYLPNKQRTVVTVRDGMSVYDSLDKALKVRGLNQDCCVVYRLIKGRKTATAWDTAIAPLDGEELIVE [V51A] the abundance fitness was -0.102 ± 0.068.
VKVYLPNKQRTVVTVRDGMSVYDSLDKALKVRGLNQDCCVVYRLIKGRKTITAWDTAIAPLDGEELIVE [V51I] gave an abundance fitness of 0.102 ± 0.13.
In the case of VKVYLPNKQRTVVTVRDGMSVYDSLDKALKVRGLNQDCCVVYRLIKGRKTVPAWDTAIAPLDGEELIVE [T52P], the abundance fitness is reported as -1.04 ± 0.2.
Work on VKVYLPNKQRTVVTVRDGMSVYDSLDKALKVRGLNQDCCVVYRLIKGRKTVKAWDTAIAPLDGEELIVE [T52K] yielded an abundance fitness of -0.356 ± 0.072.
Variant VKVYLPNKQRTVVTVRDGMSVYDSLDKALKVRGLNQDCCVVYRLIKGRKTVAAWDTAIAPLDGEELIVE [T52A] has an abundance fitness of -0.174 ± 0.062.
VKVYLPNKQRTVVTVRDGMSVYDSLDKALKVRGLNQDCCVVYRLIKGRKTVMAWDTAIAPLDGEELIVE [T52M] gave an abundance fitness of 0.118 ± 0.05.
VKVYLPNKQRTVVTVRDGMSVYDSLDKALKVRGLNQDCCVVYRLIKGRKTVFAWDTAIAPLDGEELIVE [T52F] gave an abundance fitness of -0.708 ± 0.29.
VKVYLPNKQRTVVTVRDGMSVYDSLDKALKVRGLNQDCCVVYRLIKGRKTVQAWDTAIAPLDGEELIVE [T52Q] showed an abundance fitness of -0.317 ± 0.089.
Work on VKVYLPNKQRTVVTVRDGMSVYDSLDKALKVRGLNQDCCVVYRLIKGRKTVLAWDTAIAPLDGEELIVE [T52L] yielded an abundance fitness of 0.052 ± 0.047.
Work on VKVYLPNKQRTVVTVRDGMSVYDSLDKALKVRGLNQDCCVVYRLIKGRKTVSAWDTAIAPLDGEELIVE [T52S] yielded an abundance fitness of -0.567 ± 0.071.
VKVYLPNKQRTVVTVRDGMSVYDSLDKALKVRGLNQDCCVVYRLIKGRKTVYAWDTAIAPLDGEELIVE [T52Y] gave an abundance fitness of -0.188 ± 0.11.
In the case of VKVYLPNKQRTVVTVRDGMSVYDSLDKALKVRGLNQDCCVVYRLIKGRKTVVAWDTAIAPLDGEELIVE [T52V], the abundance fitness is reported as 0.117 ± 0.059.
In the case of VKVYLPNKQRTVVTVRDGMSVYDSLDKALKVRGLNQDCCVVYRLIKGRKTVRAWDTAIAPLDGEELIVE [T52R], the abundance fitness is reported as -0.529 ± 0.063.
For VKVYLPNKQRTVVTVRDGMSVYDSLDKALKVRGLNQDCCVVYRLIKGRKTVHAWDTAIAPLDGEELIVE [T52H], the abundance fitness was -0.625 ± 0.21.
With VKVYLPNKQRTVVTVRDGMSVYDSLDKALKVRGLNQDCCVVYRLIKGRKTVGAWDTAIAPLDGEELIVE [T52G] the abundance fitness was -0.956 ± 0.11.
Variant VKVYLPNKQRTVVTVRDGMSVYDSLDKALKVRGLNQDCCVVYRLIKGRKTVDAWDTAIAPLDGEELIVE [T52D] has an abundance fitness of -0.978 ± 0.26.
VKVYLPNKQRTVVTVRDGMSVYDSLDKALKVRGLNQDCCVVYRLIKGRKTVIAWDTAIAPLDGEELIVE [T52I] gave an abundance fitness of 0.141 ± 0.17.
For VKVYLPNKQRTVVTVRDGMSVYDSLDKALKVRGLNQDCCVVYRLIKGRKTVCAWDTAIAPLDGEELIVE [T52C], the abundance fitness was -0.161 ± 0.11.
With VKVYLPNKQRTVVTVRDGMSVYDSLDKALKVRGLNQDCCVVYRLIKGRKTVWAWDTAIAPLDGEELIVE [T52W] the abundance fitness was -0.31 ± 0.052.
In the case of VKVYLPNKQRTVVTVRDGMSVYDSLDKALKVRGLNQDCCVVYRLIKGRMTVTAWDTAIAPLDGEELIVE [K49M], the abundance fitness is reported as -0.22 ± 0.095.
In the case of VKVYLPNKQRTVVTVRDGMSVYDSLDKALKVRGLNQDCCVVYRLIKGRLTVTAWDTAIAPLDGEELIVE [K49L], the abundance fitness is reported as -0.331 ± 0.039.
VKVYLPNKQRTVVTVRDGMSVYDSLDKALKVRGLNQDCCVVYRLIKGRHTVTAWDTAIAPLDGEELIVE [K49H] showed an abundance fitness of -0.551 ± 0.14.
Work on VKVYLPNKQRTVVTVRDGMSVYDSLDKALKVRGLNQDCCVVYRLIKGRFTVTAWDTAIAPLDGEELIVE [K49F] yielded an abundance fitness of -0.63 ± 0.22.
Variant VKVYLPNKQRTVVTVRDGMSVYDSLDKALKVRGLNQDCCVVYRLIKGRPTVTAWDTAIAPLDGEELIVE [K49P] has an abundance fitness of -0.445 ± 0.092.
With VKVYLPNKQRTVVTVRDGMSVYDSLDKALKVRGLNQDCCVVYRLIKGRATVTAWDTAIAPLDGEELIVE [K49A] the abundance fitness was -0.516 ± 0.083.
VKVYLPNKQRTVVTVRDGMSVYDSLDKALKVRGLNQDCCVVYRLIKGRTTVTAWDTAIAPLDGEELIVE [K49T] showed an abundance fitness of -0.968 ± 0.19.
VKVYLPNKQRTVVTVRDGMSVYDSLDKALKVRGLNQDCCVVYRLIKGRDTVTAWDTAIAPLDGEELIVE [K49D] gave an abundance fitness of -0.804 ± 0.28.
VKVYLPNKQRTVVTVRDGMSVYDSLDKALKVRGLNQDCCVVYRLIKGRETVTAWDTAIAPLDGEELIVE [K49E] showed an abundance fitness of -0.847 ± 0.2.
In the case of VKVYLPNKQRTVVTVRDGMSVYDSLDKALKVRGLNQDCCVVYRLIKGRQTVTAWDTAIAPLDGEELIVE [K49Q], the abundance fitness is reported as -0.566 ± 0.13.
With VKVYLPNKQRTVVTVRDGMSVYDSLDKALKVRGLNQDCCVVYRLIKGRSTVTAWDTAIAPLDGEELIVE [K49S] the abundance fitness was -0.8 ± 0.11.
Variant VKVYLPNKQRTVVTVRDGMSVYDSLDKALKVRGLNQDCCVVYRLIKGRRTVTAWDTAIAPLDGEELIVE [K49R] has an abundance fitness of -0.135 ± 0.049.
For VKVYLPNKQRTVVTVRDGMSVYDSLDKALKVRGLNQDCCVVYRLIKGRGTVTAWDTAIAPLDGEELIVE [K49G], the abundance fitness was -0.863 ± 0.097.
For VKVYLPNKQRTVVTVRDGMSVYDSLDKALKVRGLNQDCCVVYRLIKGRCTVTAWDTAIAPLDGEELIVE [K49C], the abundance fitness was -0.672 ± 0.34.
For VKVYLPNKQRTVVTVRDGMSVYDSLDKALKVRGLNQDCCVVYRLIKGRYTVTAWDTAIAPLDGEELIVE [K49Y], the abundance fitness was -0.668 ± 0.19.
Variant VKVYLPNKQRTVVTVRDGMSVYDSLDKALKVRGLNQDCCVVYRLIKGRVTVTAWDTAIAPLDGEELIVE [K49V] has an abundance fitness of -0.934 ± 0.17.
